Measured values as given in patent US20170073690A1 (CEMM FORSCHUNGZENTRUM FUER MOLEKULARE MEDIZIN, published 2017).

Tests used:
SLC38A1 = target: T1, SLC38A1 (human, UniProt Q9H2H9 1-487); assay: TAP-LC-MS/MS, SII-HA-tagged bait, HEK293 Flp-In TREx cells
T1 construct: N-terminally SII-HA tagged bait
T1 sequence (looked up): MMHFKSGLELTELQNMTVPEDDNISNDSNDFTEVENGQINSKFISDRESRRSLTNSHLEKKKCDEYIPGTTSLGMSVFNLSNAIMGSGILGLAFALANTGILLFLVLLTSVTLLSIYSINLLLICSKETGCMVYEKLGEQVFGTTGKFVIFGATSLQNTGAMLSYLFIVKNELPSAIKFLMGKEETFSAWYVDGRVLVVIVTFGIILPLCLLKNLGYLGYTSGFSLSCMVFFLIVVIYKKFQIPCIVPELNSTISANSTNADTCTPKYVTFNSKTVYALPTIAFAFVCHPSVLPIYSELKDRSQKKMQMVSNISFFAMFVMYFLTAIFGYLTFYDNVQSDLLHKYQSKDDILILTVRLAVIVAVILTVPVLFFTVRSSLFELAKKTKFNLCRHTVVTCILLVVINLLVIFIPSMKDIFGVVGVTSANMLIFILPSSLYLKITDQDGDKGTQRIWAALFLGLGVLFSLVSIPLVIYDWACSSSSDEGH
Description: (§1) Tandem affinity STREP-HA purifications were performed as previously described³. In brief, cells were stimulated with doxycycline/tetracycline for 24 h to induce expression of SII-HA-tagged bait proteins. Induction of SII-HA-LAMTOR 3 was combined with 9 h starvation in serum free medium. Protein complexes were isolated by TAP using streptavidin agarose followed by elution with biotin, and a second purification step using HA-agarose beads. Proteins were eluted with 100 mM formic acid, neutralized with triethylammonium bicarbonate (TEAB) and digested with trypsin, and the peptides were analysed by LC-MS/MS.

SLC38A2 = target: T2, SLC38A2 (human, UniProt Q96QD8 1-506); assay: as above
T2 construct: N-terminally SII-HA tagged bait
T2 sequence (looked up): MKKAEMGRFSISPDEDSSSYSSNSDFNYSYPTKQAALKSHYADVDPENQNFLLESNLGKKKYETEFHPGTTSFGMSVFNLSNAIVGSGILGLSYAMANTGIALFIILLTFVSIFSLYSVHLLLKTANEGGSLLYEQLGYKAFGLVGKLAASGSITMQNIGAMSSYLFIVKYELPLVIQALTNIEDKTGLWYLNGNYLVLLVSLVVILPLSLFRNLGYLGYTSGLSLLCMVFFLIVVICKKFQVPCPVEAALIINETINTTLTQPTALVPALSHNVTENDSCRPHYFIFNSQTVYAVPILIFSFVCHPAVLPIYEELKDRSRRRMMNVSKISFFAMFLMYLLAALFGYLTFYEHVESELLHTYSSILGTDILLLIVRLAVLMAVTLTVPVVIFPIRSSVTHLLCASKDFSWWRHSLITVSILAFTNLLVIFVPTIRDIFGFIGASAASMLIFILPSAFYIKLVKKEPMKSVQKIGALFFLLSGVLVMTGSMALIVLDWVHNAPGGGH
Description: as §1

binding result (SLC38A1): no binding
binding result (SLC38A2): no binding
B1: RAGD (enzyme, human, UniProt Q9NQL2 1-400, looked up)
chain: MSQVLGKPQPQDEDDAEEEEEEDELVGLADYGDGPDSSDADPDSGTEEGVLDFSDPFSTEVKPRILLMGLRRSGKSSIQKVVFHKMSPNETLFLESTNKICREDVSNSSFVNFQIWDFPGQIDFFDPTFDYEMIFRGTGALIFVIDSQDDYMEALARLHLTVTRAYKVNTDINFEVFIHKVDGLSDDHKIETQRDIHQRANDDLADAGLEKIHLSFYLTSIYDHSIFEAFSKVVQKLIPQLPTLENLLNIFISNSGIEKAFLFDVVSKIYIATDSTPVDMQTYELCCDMIDVVIDISCIYGLKEDGAGTPYDKESTAIIKLNNTTVLYLKEVTKFLALVCFVREESFERKGLIDYNFHCFRKAIHEVFEVRMKVVKSRKVQNRLQKKKRATPNGTPRVLL
notes: Named in the results only as one of the four RAG GTPases; also called RAG GTPase D
